Residue numbers refer to the chain shown, from its start. Each block holds one binder with its values, some of them ahead of it.
Legend:
Cynomolgus CEACAM5 [1] = target: T1, Cynomolgus CEACAM5 (cynomolgus monkey); assay: SPR, anti-hFc capture, 37C, pH 6.0
T1 construct: also called cyno CEACAM5
Experimental: (§1) To determine the affinity and cross-reactivity of CEACAM5 TriNKET molecules, AB0411, AB0466, or AB0621 TriNKETs were captured using an anti-human Fc capture antibody (Cytiva, #BR100839) immobilized onto a Biacore CM5 standard surface sensor chip following manufacturer instructions. Human or cynomolgus CEACAM5 were titrated over captured AB0411, AB0466, and AB0621 as 2-fold serial dilutions starting from 300 nM. Association was monitored for 300 sec and dissociation was monitored for 600 sec. The assay was run at 37° C. at pH 7.4 and 6.0. The surface of the CM5 chip was regenerated with 10 mM glycine pH 1.5 for 20 sec at 100 μL/min.

human FcγRIIA R131 [2] = target: T2, human FcγRIIA R131 (human, UniProt P12318 34-218, limits assumed); assay: SPR, AB0621 on Protein A chip, 25C, pH 7.4; reference not named
T2 sequence (looked up): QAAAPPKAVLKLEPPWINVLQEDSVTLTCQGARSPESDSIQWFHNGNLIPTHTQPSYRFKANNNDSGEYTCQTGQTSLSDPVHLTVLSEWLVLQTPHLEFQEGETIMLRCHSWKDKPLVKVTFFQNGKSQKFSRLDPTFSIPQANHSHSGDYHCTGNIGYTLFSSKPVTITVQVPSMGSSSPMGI
Experimental: (§2) AB0621 was captured onto a Protein A chip (Cytiva, #29127556). Human FcγRs were titrated over captured AB0621 as 3-fold serial dilutions starting from 300 nM for FcγRI, 1000 nM for FcγRIIA R131 and H131, and 3000 nM for FcγRIIB and FcγRIIIB. Association was monitored for 120 sec and dissociation was monitored for 180 sec. Assays were run at 25° C. at pH 7.4. The surface of the chip was regenerated with 10 mM glycine pH 1.5 for 20 sec at 30 μL/min.

human FcγRI [3] = target: T3, human FcγRI (human, UniProt P12314 16-288, limits assumed); assay: as above
T3 sequence (P12314 16-288 limits assumed): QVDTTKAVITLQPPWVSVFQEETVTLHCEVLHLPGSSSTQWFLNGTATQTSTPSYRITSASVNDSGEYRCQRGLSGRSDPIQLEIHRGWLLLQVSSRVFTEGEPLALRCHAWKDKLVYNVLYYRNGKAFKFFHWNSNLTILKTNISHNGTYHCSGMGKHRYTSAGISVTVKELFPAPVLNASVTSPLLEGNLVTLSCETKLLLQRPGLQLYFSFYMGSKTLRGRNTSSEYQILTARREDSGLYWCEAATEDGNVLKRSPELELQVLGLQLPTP
Experimental: as §2

human FcγRIIB [4] = target: T4, human FcγRIIB (human, UniProt P31994 43-217, limits assumed); assay: as above
T4 sequence (looked up): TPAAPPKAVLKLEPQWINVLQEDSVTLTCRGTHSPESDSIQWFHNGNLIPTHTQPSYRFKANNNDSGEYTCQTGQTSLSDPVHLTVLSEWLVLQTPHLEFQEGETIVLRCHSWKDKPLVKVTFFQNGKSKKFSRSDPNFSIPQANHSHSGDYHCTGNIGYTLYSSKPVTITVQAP
Experimental: as §2

human FcγRIIIB = human FcγRIIIB (human, UniProt O75015 17-200, limits assumed); assay: SPR, AB0621 on Protein A chip, 25C, pH 7.4
Sequence of human FcγRIIIB (O75015 17-200 limits assumed): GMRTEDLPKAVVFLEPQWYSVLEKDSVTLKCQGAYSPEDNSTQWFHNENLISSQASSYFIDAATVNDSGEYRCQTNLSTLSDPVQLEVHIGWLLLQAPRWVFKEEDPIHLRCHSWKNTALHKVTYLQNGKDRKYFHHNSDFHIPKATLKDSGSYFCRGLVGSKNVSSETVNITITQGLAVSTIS
Experimental: as §2

human FcγRIIA R131 [5] = target: T2, human FcγRIIA R131; assay: SPR, AB0621 on Protein A chip, 25C, pH 7.4
Experimental: as §2

human FcγRIIA H131 = target: T5, human FcγRIIA H131 (human, UniProt P12318 34-218, limits assumed); assay: SPR, AB0621 on Protein A chip, 25C, pH 7.4
T5 sequence (looked up): T2 sequence (looked up) with R134H
Experimental: as §2

human FcγRI [6] = target: T3, human FcγRI; assay: SPR, AB0621 on Protein A chip, 25C, pH 7.4
Experimental: as §2

human FcγRIIB [7] = target: T4, human FcγRIIB; assay: SPR, AB0621 on Protein A chip, 25C, pH 7.4
Experimental: as §2

Cynomolgus CEACAM5 [8] = target: T1, Cynomolgus CEACAM5; assay: SPR, anti-hFc capture, 37C, pH 7.4
Experimental: as §1

[9] = target: T6, human CD16A (FcγRIIIA) V158 (human, UniProt P08637 17-208, limits assumed, biotinylated in the assay of Table 21); assay: SPR (Biacore), AB0264 captured on a CM5 chip with immobilised human CEACAM5; 2 uM CD16A, then premix of 2 uM CD16A and 2 uM NKG2D-His
T6 construct: also called CD16A (V158/V176)
T6 sequence (P08637 17-208 F176V limits assumed): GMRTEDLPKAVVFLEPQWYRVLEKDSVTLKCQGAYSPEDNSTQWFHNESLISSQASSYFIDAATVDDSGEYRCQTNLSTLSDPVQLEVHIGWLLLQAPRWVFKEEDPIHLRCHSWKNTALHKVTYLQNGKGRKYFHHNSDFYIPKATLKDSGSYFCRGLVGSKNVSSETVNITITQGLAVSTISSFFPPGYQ
Excerpt: This surface was used to first stably capture AB0264 onto the chip surface. […] The ratio of binding signals (which are proportional to MWs) was approximately 5:1:1 which is consistent with a 1:1:1 molar stoichiometry of complex bound on the CEACAM5 surface.

Human CEACAM5 (K398) = target: T7, Human CEACAM5 (K398) (human, UniProt P06731 35-685, limits assumed); assay: SPR, anti-hFc capture, 37C, pH 7.4
T7 construct: also called K398 allele
T7 sequence: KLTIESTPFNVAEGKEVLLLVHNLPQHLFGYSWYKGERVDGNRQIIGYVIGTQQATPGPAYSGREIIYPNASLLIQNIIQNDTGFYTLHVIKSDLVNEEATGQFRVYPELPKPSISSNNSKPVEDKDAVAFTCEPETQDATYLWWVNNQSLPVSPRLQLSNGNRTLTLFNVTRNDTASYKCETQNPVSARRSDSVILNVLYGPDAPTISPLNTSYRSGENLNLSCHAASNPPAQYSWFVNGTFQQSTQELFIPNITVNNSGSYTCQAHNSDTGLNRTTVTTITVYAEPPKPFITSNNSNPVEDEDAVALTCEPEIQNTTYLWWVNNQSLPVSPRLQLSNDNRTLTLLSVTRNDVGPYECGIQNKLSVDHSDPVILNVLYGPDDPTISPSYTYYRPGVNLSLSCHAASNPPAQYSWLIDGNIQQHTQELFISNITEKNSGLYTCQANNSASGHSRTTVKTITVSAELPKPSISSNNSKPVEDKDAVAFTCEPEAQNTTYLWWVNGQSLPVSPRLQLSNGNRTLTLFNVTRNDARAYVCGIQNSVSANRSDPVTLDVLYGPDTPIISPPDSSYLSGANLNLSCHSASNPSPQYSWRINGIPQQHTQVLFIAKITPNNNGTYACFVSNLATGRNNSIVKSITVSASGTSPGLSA
Experimental: as §1

Kd (Cynomolgus CEACAM5 [1]): 6.5 nM
kon (Cynomolgus CEACAM5 [1]): 130000 M⁻¹ s⁻¹
KD/KD ref (human FcγRIIA R131 [2]): 0.68 fold
KD/KD ref (human FcγRI [3]): 0.64 fold
KD/KD ref (human FcγRIIB [4]): 0.94 fold
Kd (human FcγRIIA R131 [5]): 330 nM
Kd (human FcγRIIA H131): 600 nM
Kd (human FcγRI [6]): 14 nM
kon (human FcγRI [6]): 2.6e+06 M⁻¹ s⁻¹
Kd (human FcγRIIB [7]): 3300 nM
Kd (Cynomolgus CEACAM5 [8]): 14 nM
kon (Cynomolgus CEACAM5 [8]): 61000 M⁻¹ s⁻¹
B1: AB0621 F3' CEACAM5 TriNKET (bispecific antibody, human IgG1, kappa)
chain: DIVMTQSPDSLAVSLGERATINCKSSHSLLYGNFQNNYLAWYQQKPGQPPKLLIYWASTRESGVPDRFSGSGSGTDFTLTISSLQAEDVAVYYCQQYYSYPYTFGCGTKLEIKGGGGSGGGGSGGGGSGGGGSQVQLVQSGAEVKKPGASVKVSCKASGYTFTAYTIHWVRQAPGQCLEWMGYINPSSGYTEYNQKFKDRTTLTADTSISTAYMELSRLRSDDTAVYYCTREGGLLWFDYWGQGTLVTVSSGSDKTHTCPPCPAPELLGGPSVFLFPPKPKDTLMISRTPEVTCVVVDVSHEDPEVKFNWYVDGVEVHNAKTKPREEQYNSTYRVVSVLTVLHQDWLNGKEYKCKVSNKALPAPIEKTISKAKGQPREPRVYTLPPCRDELTKNQVSLTCLVKGFYPSDIAVEWESNGQPENNYKTTPPVLVSDGSFTLYSKLTVDKSRWQQGNVFSCSVMHEALHNHYTQKSLSLSPG
heavy: EVQLVESGGGLVKPGGSLRLSCAASGFTFSSYSMNWVRQAPGKGLEWVSSISSSSSYIYYADSVKGRFTISRDNAKNSLYLQMNSLRAEDTAVYYCARGAPIGAAAGWFDPWGQGTLVTVSSASTKGPSVFPLAPSSKSTSGGTAALGCLVKDYFPEPVTVSWNSGALTSGVHTFPAVLQSSGLYSLSSVVTVPSSSLGTQTYICNVNHKPSNTKVDKKVEPKSCDKTHTCPPCPAPELLGGPSVFLFPPKPKDTLMISRTPEVTCVVVDVSHEDPEVKFNWYVDGVEVHNAKTKPREEQYNSTYRVVSVLTVLHQDWLNGKEYKCKVSNKALPAPIEKTISKAKGQPREPQVCTLPPSRDELTENQVSLTCLVKGFYPSDIAVEWESNGQPENNYKTTPPVLDSDGSFFLYSWLTVDKSRWQQGNVFSCSVMHEALHNHYTQKSLSLSPG
light: DIQMTQSPSSVSASVGDRVTITCRASQGISSWLAWYQQKPGKAPKLLIYAASSLQSGVPSRFSGSGSGTDFTLTISSLQPEDFATYYCQQGVSFPRTFGGGTKVEIKRTVAAPSVFIFPPSDEQLKSGTASVVCLLNNFYPREAKVQWKVDNALQSGNSQESVTEQDSKDSTYSLSSTLTLSKADYEKHKVYACEVTHQGLSSPVTKSFNRGEC
binding result (human FcγRIIIB): no binding (tested: titrated from 3000 nM)

binding result [9]: binds
Kd (Human CEACAM5 (K398)): 13 nM
kon (Human CEACAM5 (K398)): 91000 M⁻¹ s⁻¹
B2: AB0264 F3' CEACAM5 TriNKET (bispecific antibody, human IgG1, kappa)
chain: B1 chain with S210P
heavy: B1 heavy
light: B1 light

Reference: patent US20240124607A1 (Merck Sharp & Dohme, published 2024)
